Experiment: soluble on expression in E. coli; label from the status in PepcDB or PDB records

| Sequence | soluble on expression in E. coli |
| --- | --- |
| HHHHHHYMEQEEDWDRDLLLDPAWEKQQRKTFTAWCNSHLRKAGTQIENIEEDFRNGLKLMLLLEVISGERLPRPDKGKMRFHKIANVNKALDFIASKGVKLVSIGAEEIVDGNLKMTLGMIWTIILRFAIQDISVEETSAKEGLLLWCQRKTAPYRNVNVQNFHTSWKDGLALCALIHRHRPDLIDYAKLRKDDPIGNLNTAFEVAEKYLDIPKMLDAEDIVNTPKPDEKAIMTYVSCFYHAFAGAEQAETAA | soluble |
| INDWSYSIGANFSYVTTKIMDLKGGDTPGQSVGDPLWAYYGYVCDGIFQNEEEIKNHPTQSMGTPVPGDLKYRDLNGDKVVDSKDRQVLGSYFPKINFGLNLSVQYKDFDLSALLQGAADVKSAPVAEIRYAFYNGGKVTEQHLDRWTPENPNATYPRLSMSDSKNRVTSSFWMQDASYAKLRNLQVGYSLPKQLISKYGISRLRVYCSIDNLFMISGFDGVDPEAISGNYYPLTRNYSFGLNVTF | not soluble |
| MSHLRIPANWKVKRSTPFFTKENVPAALLSHHNTAAGVFGQLCVMEGTVTYYGFANETATEPEVKVVINAGQFATSPPQYWHRVELSDDARFNIHFWVEEDHQGEEMYQQKKA | not soluble |
| MPSPSPKGLPVKQYAVQSQLPVYEWPDVGSGEYDVGVVASFGRLLNEALILKFPYGILNVHPSCLPRWRGPAPVIHTVLHGDTVTGVTIMQIRPKRFDVGPILKQETVPVPPKSTAKELEAVLSRLGANMLISVLKNLPESLSNGRQQPMEGATYAPKISAGTSCIKWEEQTSEQIFRLYRAIGNIIPLQTLWMANTIKLLDLVEVNSSVLADPKLTGQALIPGSVIYHKQSQILLVYCKDGWIGVRSVMLKKSLTATDFYNGYLHPWYQKNSQAQPSQCRFQTLRLPTKKKQKKTVAMQQCIE | soluble |
| MRNTMRSFILRARSAPTDSQRLLDEIGGKCHTEILAHCMMNSLFTAQSHREDVVIHLVLESTRDYSRTITVEANEISDVGGFHEAALIALLVKALDASVGMGKEQTRVVQPGLTVRTISFEALLGELAEHHSLYMMDKKGDSIRDIKIGPNPCFILTDHIPMPKKSGNSMKRLGVEKISLGPKMLFASQCVTLIHNEIDHQEAGW | soluble |
| MGSDKIHHHHHHMHSAALLQKVDELPRLPKAIAELLDVVNNEDSTVKAVSEKLSHDPVLSARVLRLANSARFGCSREVGTIDDAVVRLGMQTLRTLVIASAVVGAVPKVEGFDLADFWGNTFEVAIICQELAKRLGTLPEEAFTCGILHSIGELLIVNGDPAVAATISAAVADGADRNLMEKELLGYDNAEIGALLAQSWKFTPHLVKGIQFQNHPKSAEPYSKLAGMLAMAKQIAADWDKIPDDERTSWLAQINILAGIKVDLGGLAEKLAKMHGQGMEMGKQLA | not soluble |
| MSLKDGKLGLPIPEAVKIIPELNNYVINGKLDFSNRQARILYNKAIAKALFGLDIEYHPKGLVTTPISRYIFLKTFLRGGEVALEIGTGHTAMMALMAEKFFNCKVTATEVDEEFFEYARRNIERNNSNVRLVKSNGGIIKGVVEGTFDVIFSAPPYYDKPLGRVLTEREAIGGGKYGEEFSVKLLEEAFDHLNPGGKVALYLPDKEKLLNVIKERGIKLGYSVKDIKFKVGTRWRHSLIFFKGISEGHHHHHH | soluble |
| MNSCNRLPCAHEVLAVFAHPDDESFGLGAVLGDFTAQGTRLRGLCFTHGEASTLGRTDRNLGEVRREELAAAAQVLGVDHVQLLAYPDNGLAQIPLNELTQRVVDALAGADLLLVFDDNGVTGHPDHRRATEAALAAASTPSIPVLAWALPQPIADRLNAEFSASFGGRGHGHLDIMIEVDRSRQLAAIGCHFTQSADNPVLWRRLELLGDREYLRWLRRSVP | soluble |
| MIPLPSGTKIWLVAGITDMRNGFNGLAAKVQTTLKDDPMSGHVFIFRGRNGSQVKLLWSTGDGLCLLTKRLERGRFAWPSARDGKVFLTPAQLAMLLEGIDWRQPKRLLTSLTML | not soluble |
| MTHKGSCHCGRIAFEVDGEPGSAMACNCSICQRKGSLLWFVPREHLHLLTPDENASTYTFNKHVIRHRFCPVCGMHPYGEGTGADGKAMVAINIRCLEDIDLAAVPVTQFDGRSRLEHHHHHH | soluble |
| MGSDKIHHHHHHMRIEVVNVSHIFHRGTPLEKKALENVSLVINEGECLLVAGNTGSGKSTLLQIVAGLIEPTSGDVLYDGERKKGYEIRRNIGIAFQYPEDQFFAERVFDEVAFAVKNFYPDRDPVPLVKKAMEFVGLDFDSFKDRVPFFLSGGEKRRVAIASVIVHEPDILILDEPLVGLDREGKTDLLRIVEKWKTLGKTVILISHDIETVINHVDRVVVLEKGKKVFDGTRMEFLEKYDPRFFTSKMLVMRRLVLKGEDPFSMSDDELLERVCNS | not soluble |
| MKVGVVGLQGDVSEHIEATKMAIEKLELPGEVIWLKRPEQLKGVDAVIIPGGESTTISRLMQRTGLFEPIKKMVEDGLPVMGTCAGLIMLAKEVLGATPEQKFLEVLDVKVNRNAYGRQVDSFEAPVKLAFDDEPFIGVFIRAPRIVELLSEKVKPLAWLEDRVVGVEQENIIGLEFHPELTNDTRIHEYFLRKVI | soluble |
| AKPVTSETMAAKTVGLQIYSLGKELYADVPGGLKKIKQMGYTNLELAGYKEGKIGGVDMMEFKKMVDDAGLKITSSHVNPPVREYTKANRSQISEYWKKTADDHAKLGVKYLIQPGQPSTRSTEETAFVCEIFNEAGKIVKAAGIPFGYHNHEMEFAKVNPGSTEAKLGRRVKGDCIYELFLKNTDPSLVFFEMDVYWAVMGQQDPIEWLKKYPNRIKVLHIKDRAILGESGMMNFENIFRQAYANGIKDYFVELEGMPDGRSQFEGVKGCVDYLLKAPFVK | soluble |
| MADRQLLHTAHIPVRWGDMDSYGHVNNTLYFQYLEEARVAWFETLGIDLEGAAEGPVVLQSLHTYLKPVVHPATVVVELYAGRLGTSSLVLEHRLHTLEDPQGTYGEGHCKLVWVRHAENRSTPVPDSIRAAIA | soluble |
| AGFMVPTTNTAGWGRAMAGGSLFPNDPSAAFNNPAAMAFIDKRIAQLTVNYADIDIKYNGDAYDYQGNPMTGGYQDGPGTPELGTNDGGQAGFGAWLPTGFLVVPINDRFAFGLSQVVPMGMRSTWDPNWKGRDFAVDTKIETIGLTGSLSFKVNDNFSLGAGVIIQRTSGFVSQNLDLYASAANSPGMGGIPFPASNSSALMRVKVDNTSPGFFAGAVWKPTDRDTLGFAYHAKIRNKLKGHYNLYDHDGGLTEGAIEGGTPGLAYPGLDLRMGASASARLDIPAYASLDWVHQFNDRLSLGASATWTEWSSFQDLTLKSHGNTIVSIPYTYRNTWTLAVGGDYKVTDQWTMRAGVAYDQTPTHNATRDPRIPDGDRYFASLGAGYRFQSMPELSIDAAYSRQFVKEVPLKTVNQDRLGGGRLDGRATSKGQVFSLSATYDFHHHHHHHH | soluble |
| SLDARLWLERIRELPIPDGIRIMNVCGGHERSISMAGLRTALPPAIRLIPGPGCPVCICPEEDIYQAIRLGLEGEAVVATFGDMLRVPVNLGRQAVRTLEQAKAAGADIRPIASPIEARIIAEKAAGKPVVLFAVGFETTMAPVAALMAEGLPDNLYILCSGRLTWPAVKLLLDSDECVLDALVAPGHVATVMGPEEWAFVADDYRLPVAIAGFTPASLLRAIHSTIVQWLEETPRLDNCYPEAVKPGGNPKAREFLDRSFDVAAGNWRGIGPIAASAYALKPGFAAHDARLHFPDYDAGDRRHAGEMPAGCDCARVVLGRIQPDECRIYGKPCSPRSPVGPCMVSDEGACRIWWAAGVRKDSAAA | not soluble |
| MSSDALPLLSIRGVGKTYAQPVLAEIDLQLFGGEVLALTGENGAGKSTLSKIVGGLERPGAGSLELLGRPYAPASRREAEALGVRMVMQELNLLPTLSVAENLFLHDLPRRAGWIDRRRLRAAAREAMAQVGLEAIDPDTLVGDLGIGHQQMVEIARNLIGDCRLLILDEPTAMLTAREVDMLFEQVERLRERGVAIVYISHRLEELARISQRIAVLRDGRLVCVEPIERYDADQLVTLMVGRDLGERFDLGPRQTGAPLLRVERLSRRGKVHEVSFEVRAGEIFGISGLIGSGRTELLRLIYGADRADGGQVLLGDPPQRLSLRSPADSVRQGVALITEDRKGEGLLLDQSISANLALGNLPALARHGVIDRRREEALARRQVEALRVRCADTAQAVGELSGGNQQKVVIGRWLERDCQVLLFDEPTRGIDVGAKFDIYALLAELTRRGKALVVVSSDLRELMLICDRIGVLSAGRMVDTFERDAWTQDALLAAAFAGYK | not soluble |
| LDNAPLLELDVQEWVNHEGLSNEDLRGKVVVVEVFQMLCPGCVNHGVPQAQKIHRMIDESQVQVIGLHSVFEHHDVMTPEALKVFIDEFGIKFPVAVDMPREGQRIPSTMKKYRLEGTPSIILADRKGRIRQVQFGQVDDFVLGLLLGSLLSETD | not soluble |
| MAHHHHHHMSSPAWSVYEGDWGSFCDDADNVPPTLSLKGCGLRQKCLLQRGAQGAVYLGEDADGNVFVVKRLFTQRSEFGVRGVSEGSLREATLLTYITERSKTLGPEPLFGVIRLERIVEAPFQELSLILERCAFNLSRMVFYSRKRAYSAAGLFPETPTRCPILAKMNVIQYLMRGILKILQFLHEECHIIHRDVKLGNLLVGEDGRVRLADFGSARFMHEPVEKMSDARSGEYTPISLRTTVIYQAPECLLGERSYTAAVDMWAAGVVFAELLLQQHLFHSCSELGMLSDIWKLLGTPSDDPSVCSGEGAVTYAVRTESTIERKFPERIVSAEGLDLLKRMLETNPKKRITDSEALRHPFLCGPAVESGMEEARRLWNKKVEACMQETVAQPAAMGMRSFYVDNVEFDEESGENDDDDGEIATLPTCLDCFPHILSDVNGRHDI | not soluble |
| STNPKPQRKTKRNTNRRPQDVKFPGGGQIVGGVYLLPRRGPRLG | soluble |
| MGSDKIHHHHHHMSIAHQNAHTIIRDILSKQHIERVWFVGCGGSLTGFWPGKYFLDCEAKKLAVGYVTSNEFVHATPNALGKNSVVILASQQGNTAETVEAARIARQKGAATIGLVYTPGTPLCEHSDYTIKYCWARYPETVDPTQQKAAYSLWLALEVLAQTEGYAHYDEMVSAFASFESVVRGAQQQVQADARHFAEAWKTEKVIYMMGSGPSFGAAHQESICILLEMQWINSASIHSGEYFHGPFEITETGTPFILLKSSGRTRPLDDRAIRFIERYQGKLQIIDVEKVGINALHASVREYFCGLLHNCVLDVYNLALATARNHPLTTRRYMWKVEY | not soluble |
| MSLNKKRPLKGRFLHITDIHPDPHYKTGSTFDSGCHRKPKKDGKSEGKKATENERGNEDLDDKEFDTLIKNEDLAGKWGTAVSDCDCPMSLVNITFDWLKEEWANEVDFVVWTGDNARHDIDRRIPRTPKEIFDSNRMIVDRMLDAFGRDMPIVPSIGNNDIYPHNVLAAGPSRITEEFLLIWKHFIPSEAAHVFERGAYFSVEVIPDRLAVISLNTLFWYDANTLVDGCRDHSNDPGALEMDWLEVQLNNFRQRGMQVWLTGHVPPHMNHYYDNCYLRYGDLALRYQDTIVGHLFGHMNVDHFFFIDVDELEATSELTSTSSNTTLSDLPLLHGPRLPRPGPGKYTAMGRSGARKLEEELRKDEGHHHHHH | soluble |
| MKQKEYMEYRPLGEEIERIRKGKNIPLRVFDENGVSSRSYQRFVQGNSELRISDLAIIVEILSISPMEMTEKLTPMSKTVLAKEQFNQAIFSKNFQESSRIVADYRAYYEKSSFALGKQEVMYSMLALEYLFNPQTVVTKEEIIALENQILERLINADVYTIFNLKFLALQKNVGLQPFPTSLLFRVLQSVNEREIIDIRSLEIIEQVIIDFLFAAIVSQNVPHILHVLSMFKEYEVGENNWRMILWKKIAEKIEMILTNEEIFADWSIFKEQILLSITLFLPKAKQEFFAGQLEKIEDSLKEIKEN | not soluble |
| MKKIIETQRAPGAIGPYVQGVDLGSMVFTSGQIPVCPQTGEIPADVQDQARLSLENVKAIVVAAGLSVGDIIKMTVFITDLNDFATINEVYKQFFDEHQATYPTRSCVQVARLPKDVKLEIEAIAVRSA | soluble |
